Patent US20050272090, “Nucleic acid binding of multi-zinc finger transcription factors” (published 2005)

Columns and labels:
[1] = target: T1, SIP1 full length in cells (Mus musculus) (UniProt Q9R0G7); assay: cell_activity; conditions: luciferase reporter in NMe, MDCK, MCF7/AZ
T1 sequence: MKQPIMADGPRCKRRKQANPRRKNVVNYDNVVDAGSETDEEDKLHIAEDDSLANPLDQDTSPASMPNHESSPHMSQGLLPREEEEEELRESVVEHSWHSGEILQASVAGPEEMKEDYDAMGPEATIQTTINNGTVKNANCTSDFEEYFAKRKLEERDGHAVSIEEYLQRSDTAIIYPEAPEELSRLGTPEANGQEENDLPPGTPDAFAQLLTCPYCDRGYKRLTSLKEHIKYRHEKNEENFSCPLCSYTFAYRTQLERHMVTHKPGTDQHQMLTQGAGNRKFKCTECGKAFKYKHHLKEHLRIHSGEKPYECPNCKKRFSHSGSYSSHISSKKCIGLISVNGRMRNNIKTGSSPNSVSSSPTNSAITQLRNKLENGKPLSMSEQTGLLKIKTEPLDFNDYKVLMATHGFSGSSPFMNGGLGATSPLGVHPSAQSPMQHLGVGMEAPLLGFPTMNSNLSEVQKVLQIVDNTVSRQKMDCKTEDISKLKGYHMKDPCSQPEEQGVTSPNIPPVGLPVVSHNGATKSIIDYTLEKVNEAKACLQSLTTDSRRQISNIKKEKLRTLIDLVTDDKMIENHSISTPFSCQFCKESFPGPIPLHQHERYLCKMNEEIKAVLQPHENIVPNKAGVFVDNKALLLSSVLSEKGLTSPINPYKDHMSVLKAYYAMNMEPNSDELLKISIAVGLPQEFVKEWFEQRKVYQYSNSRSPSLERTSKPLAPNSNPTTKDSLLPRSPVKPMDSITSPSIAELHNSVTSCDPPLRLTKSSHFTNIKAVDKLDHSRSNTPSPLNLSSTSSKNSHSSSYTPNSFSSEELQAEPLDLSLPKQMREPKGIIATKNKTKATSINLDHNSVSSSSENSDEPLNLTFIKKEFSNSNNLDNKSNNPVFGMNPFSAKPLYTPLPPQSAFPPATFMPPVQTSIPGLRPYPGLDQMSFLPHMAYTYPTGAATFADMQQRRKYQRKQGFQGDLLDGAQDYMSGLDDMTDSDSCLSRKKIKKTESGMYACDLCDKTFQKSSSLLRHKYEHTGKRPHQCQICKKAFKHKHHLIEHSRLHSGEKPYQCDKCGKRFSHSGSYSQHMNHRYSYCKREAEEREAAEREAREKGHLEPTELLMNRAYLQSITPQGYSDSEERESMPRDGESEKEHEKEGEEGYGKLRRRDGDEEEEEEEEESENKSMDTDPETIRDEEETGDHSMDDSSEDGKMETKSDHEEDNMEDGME

[2] = target: T2, SIP1 full length (SIP1FS) (Mus musculus, UniProt Q9R0G7 Q9R0G7:1-1215); assay: EMSA; affinity relative to SIP1CZF, estimated from expression levels; conditions: tags: N-terminal Myc6 (pCS3), COS1 cell extract; label: 32P
T2 sequence: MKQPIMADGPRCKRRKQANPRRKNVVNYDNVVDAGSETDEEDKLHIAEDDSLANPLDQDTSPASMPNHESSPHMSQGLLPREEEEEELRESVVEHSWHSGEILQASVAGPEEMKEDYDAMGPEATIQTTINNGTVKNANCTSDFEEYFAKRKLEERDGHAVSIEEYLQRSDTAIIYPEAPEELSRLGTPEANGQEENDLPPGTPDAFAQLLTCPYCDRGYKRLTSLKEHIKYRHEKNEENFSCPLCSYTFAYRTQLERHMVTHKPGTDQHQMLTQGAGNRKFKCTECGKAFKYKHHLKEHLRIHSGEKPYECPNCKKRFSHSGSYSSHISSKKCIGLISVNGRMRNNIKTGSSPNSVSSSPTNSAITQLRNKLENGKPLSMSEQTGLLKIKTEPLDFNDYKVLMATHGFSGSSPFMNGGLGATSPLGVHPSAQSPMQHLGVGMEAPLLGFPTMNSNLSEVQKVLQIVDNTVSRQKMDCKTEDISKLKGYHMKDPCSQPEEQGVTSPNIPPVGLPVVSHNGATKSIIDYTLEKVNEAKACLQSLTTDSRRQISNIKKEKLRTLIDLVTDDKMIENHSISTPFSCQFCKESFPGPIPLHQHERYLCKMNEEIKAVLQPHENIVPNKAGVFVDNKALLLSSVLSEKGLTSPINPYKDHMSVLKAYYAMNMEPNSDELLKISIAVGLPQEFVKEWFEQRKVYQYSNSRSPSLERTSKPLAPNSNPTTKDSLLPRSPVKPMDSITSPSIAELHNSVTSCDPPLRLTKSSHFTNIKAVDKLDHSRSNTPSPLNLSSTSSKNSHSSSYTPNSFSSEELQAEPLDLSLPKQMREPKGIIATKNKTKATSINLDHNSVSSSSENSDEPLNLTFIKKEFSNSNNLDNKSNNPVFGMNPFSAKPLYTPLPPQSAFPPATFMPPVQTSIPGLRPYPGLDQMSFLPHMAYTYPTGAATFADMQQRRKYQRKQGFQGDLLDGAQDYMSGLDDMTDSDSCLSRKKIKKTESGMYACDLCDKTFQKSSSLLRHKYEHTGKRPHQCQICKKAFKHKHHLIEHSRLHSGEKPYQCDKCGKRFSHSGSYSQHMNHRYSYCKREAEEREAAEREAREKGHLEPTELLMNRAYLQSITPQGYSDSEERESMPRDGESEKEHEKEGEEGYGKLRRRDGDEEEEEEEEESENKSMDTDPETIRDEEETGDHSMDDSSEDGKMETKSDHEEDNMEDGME
Experimental: The Xbra-WT oligonucleotide covers the region from −344 to −294 of the Xbra2 promoter (16). The region between −412 to −352 of the α4-integrin promoter is present within the α4I-WT oligonucleotide (26). The Ecad-WT probe contains the region between −86 to −17 of the human Ecad promoter (2). Double-stranded oligonucleotides were labeled with [³²P]-γ-ATP and T4 polynucleotide kinase (New England Biolabs). Total cell extracts were prepared from COS1 cells (25) transfected with different pCS3 vectors allowing synthesis of full length SIP1, full length δEF1, and different mutant forms of SIP1 (25), or co-production of equal amounts of Myc-tagged SP1 and FLAG-tagged SIP1. GST-SIP1 fusion proteins were purified from E. coli extract using the GST purification module (Pharmacia), and tested in gel retardation. The DNA binding assay (20 μl) was performed at 25° C., with 1 μg of COS1 total cell protein, 1 μg of poly dI-dC, 10 pg of ³²P-labeled double-stranded oligonucleotide (approx. 10⁴ Cerenkov counts) in the δEF1 binding buffer described previously (30). For supershift experiments, the extracts were incubated with anti-Myc (Santa Cruz) or anti-FLAG (Kodak) antibodies. For competition, an excess of unlabeled double-stranded oligonucleotides was added together with the labeled probe. […]

With E-cadherin promoter reporter the activity (% decrease of promoter activity) [1] was 80.

B1: Xbra-WT (dsDNA)
DNA 1: ATCCAGGCCACCTAAAATATAGAATGATAAAGTGACCAGGTGTCAGTTCT
DNA 2: AGAACTGACACCTGGTCACTTTATCATTCTATATTTTAGGTGGCCTGGAT
With B1 the binding signal [2] was no less than 50 fold.
